Experimental data taken from patent publication US20240270846A1 (published 2024).

B1: GLS3000 K50A (Kabat) L chain altered form, one-arm antibody with CE115HA000 (antibody, human IgG1, kappa, L234A L235A, N297A, name in Kabat numbering)
heavy: QVQLVESGGGVVQPGRSLRLSCAASGFTFSNAWMHWVRQAPGKGLEWVAQIKAKSNNYATYYAESVKGRFTISRDDSKNSLYLQMNSLKTEDTAVYYCRYVHYGAYYGVDAWGQGTTVTVSSASTKGPSVFPLAPSSKSTSGGTAALGCLVKDYFPEPVTVSWNSGALTSGVHTFPAVLQSSGLYSLSSVVTVPSSSLGTQTYICNVNHKPSNTKVDKKVEPKSCDKTHTCPPCPAPEAAGGPSVFLFPPKPKDTLMISRTPEVTCVVVDVSHEDPEVKFNWYVDGVEVHNAKTKPREEQYASTYRVVSVLTVLHQDWLNGKEYKCKVSNKALPAPIEKTISKAKGQPREPQVYTLPPSRCELTKNQVSLSCAVKGFYPSDIAVEWESNGQPENNYKTTPPVLDSDGSFFLVSKLTVDKSRWQQGNVFSCSVMHEALHNHYTQKSLSLSPDYKDDDDK
chain: EPKSSDKTHTCPPCPAPELLGGPSVFLFPPKPKDTLMISRTPEVTCVVVDVSHEDPEVKFNWYVDGVEVHNAKTKPREEQYNSTYRVVSVLTVLHQDWLNGKEYKCKVSNKALPAPIEKTISKAKGQPREPQVCTLPPSRDELTKNQVSLWCLVKGFYPSDIAVEWESNGQPENNYKTTPPVLDSDGSFFLYSKLTVDKSRWQQGNVFSCSVMHEALHNRYTQKSLSLSP
light: DIVMTQSPLSLPVTPGEPASISCRSSQSLVHSNRNTYLHWYQQKPGQAPRLLIYAVSNRFSGVPDRFSGSGSGTDFTLKISRVEAEDVGVYYCGQGTQVPYTFGQGTKLEIKRTVAAPSVFIFPPSDEQLKSGTASVVCLLNNFYPREAKVQWKVDNALQSGNSQESVTEQDSKDSTYSLSSTLTLSKADYEKHKVYACEVTHQGLSSPVTKSFNRGEC
notes: one-arm antibody
B2: GLS3000 L27bD (Kabat) L chain altered form, one-arm antibody with CE115HA000 (antibody, human IgG1, kappa, L234A L235A, N297A, name in Kabat numbering)
heavy: QVQLVESGGGVVQPGRSLRLSCAASGFTFSNAWMHWVRQAPGKGLEWVAQIKAKSNNYATYYAESVKGRFTISRDDSKNSLYLQMNSLKTEDTAVYYCRYVHYGAYYGVDAWGQGTTVTVSSASTKGPSVFPLAPSSKSTSGGTAALGCLVKDYFPEPVTVSWNSGALTSGVHTFPAVLQSSGLYSLSSVVTVPSSSLGTQTYICNVNHKPSNTKVDKKVEPKSCDKTHTCPPCPAPEAAGGPSVFLFPPKPKDTLMISRTPEVTCVVVDVSHEDPEVKFNWYVDGVEVHNAKTKPREEQYASTYRVVSVLTVLHQDWLNGKEYKCKVSNKALPAPIEKTISKAKGQPREPQVYTLPPSRCELTKNQVSLSCAVKGFYPSDIAVEWESNGQPENNYKTTPPVLDSDGSFFLVSKLTVDKSRWQQGNVFSCSVMHEALHNHYTQKSLSLSPDYKDDDDK
chain: EPKSSDKTHTCPPCPAPELLGGPSVFLFPPKPKDTLMISRTPEVTCVVVDVSHEDPEVKFNWYVDGVEVHNAKTKPREEQYNSTYRVVSVLTVLHQDWLNGKEYKCKVSNKALPAPIEKTISKAKGQPREPQVCTLPPSRDELTKNQVSLWCLVKGFYPSDIAVEWESNGQPENNYKTTPPVLDSDGSFFLYSKLTVDKSRWQQGNVFSCSVMHEALHNRYTQKSLSLSP
light: DIVMTQSPLSLPVTPGEPASISCRSSQSDVHSNRNTYLHWYQQKPGQAPRLLIYKVSNRFSGVPDRFSGSGSGTDFTLKISRVEAEDVGVYYCGQGTQVPYTFGQGTKLEIKRTVAAPSVFIFPPSDEQLKSGTASVVCLLNNFYPREAKVQWKVDNALQSGNSQESVTEQDSKDSTYSLSSTLTLSKADYEKHKVYACEVTHQGLSSPVTKSFNRGEC
notes: one-arm antibody
B3: GLS3000 L27bM (Kabat) L chain altered form, one-arm antibody with CE115HA000 (antibody, human IgG1, kappa, L234A L235A, N297A, name in Kabat numbering)
heavy: QVQLVESGGGVVQPGRSLRLSCAASGFTFSNAWMHWVRQAPGKGLEWVAQIKAKSNNYATYYAESVKGRFTISRDDSKNSLYLQMNSLKTEDTAVYYCRYVHYGAYYGVDAWGQGTTVTVSSASTKGPSVFPLAPSSKSTSGGTAALGCLVKDYFPEPVTVSWNSGALTSGVHTFPAVLQSSGLYSLSSVVTVPSSSLGTQTYICNVNHKPSNTKVDKKVEPKSCDKTHTCPPCPAPEAAGGPSVFLFPPKPKDTLMISRTPEVTCVVVDVSHEDPEVKFNWYVDGVEVHNAKTKPREEQYASTYRVVSVLTVLHQDWLNGKEYKCKVSNKALPAPIEKTISKAKGQPREPQVYTLPPSRCELTKNQVSLSCAVKGFYPSDIAVEWESNGQPENNYKTTPPVLDSDGSFFLVSKLTVDKSRWQQGNVFSCSVMHEALHNHYTQKSLSLSPDYKDDDDK
chain: EPKSSDKTHTCPPCPAPELLGGPSVFLFPPKPKDTLMISRTPEVTCVVVDVSHEDPEVKFNWYVDGVEVHNAKTKPREEQYNSTYRVVSVLTVLHQDWLNGKEYKCKVSNKALPAPIEKTISKAKGQPREPQVCTLPPSRDELTKNQVSLWCLVKGFYPSDIAVEWESNGQPENNYKTTPPVLDSDGSFFLYSKLTVDKSRWQQGNVFSCSVMHEALHNRYTQKSLSLSP
light: DIVMTQSPLSLPVTPGEPASISCRSSQSMVHSNRNTYLHWYQQKPGQAPRLLIYKVSNRFSGVPDRFSGSGSGTDFTLKISRVEAEDVGVYYCGQGTQVPYTFGQGTKLEIKRTVAAPSVFIFPPSDEQLKSGTASVVCLLNNFYPREAKVQWKVDNALQSGNSQESVTEQDSKDSTYSLSSTLTLSKADYEKHKVYACEVTHQGLSSPVTKSFNRGEC
notes: one-arm antibody
B4: GLS3000 L27bF (Kabat) L chain altered form, one-arm antibody with CE115HA000 (antibody, human IgG1, kappa, L234A L235A, N297A, name in Kabat numbering)
heavy: QVQLVESGGGVVQPGRSLRLSCAASGFTFSNAWMHWVRQAPGKGLEWVAQIKAKSNNYATYYAESVKGRFTISRDDSKNSLYLQMNSLKTEDTAVYYCRYVHYGAYYGVDAWGQGTTVTVSSASTKGPSVFPLAPSSKSTSGGTAALGCLVKDYFPEPVTVSWNSGALTSGVHTFPAVLQSSGLYSLSSVVTVPSSSLGTQTYICNVNHKPSNTKVDKKVEPKSCDKTHTCPPCPAPEAAGGPSVFLFPPKPKDTLMISRTPEVTCVVVDVSHEDPEVKFNWYVDGVEVHNAKTKPREEQYASTYRVVSVLTVLHQDWLNGKEYKCKVSNKALPAPIEKTISKAKGQPREPQVYTLPPSRCELTKNQVSLSCAVKGFYPSDIAVEWESNGQPENNYKTTPPVLDSDGSFFLVSKLTVDKSRWQQGNVFSCSVMHEALHNHYTQKSLSLSPDYKDDDDK
chain: EPKSSDKTHTCPPCPAPELLGGPSVFLFPPKPKDTLMISRTPEVTCVVVDVSHEDPEVKFNWYVDGVEVHNAKTKPREEQYNSTYRVVSVLTVLHQDWLNGKEYKCKVSNKALPAPIEKTISKAKGQPREPQVCTLPPSRDELTKNQVSLWCLVKGFYPSDIAVEWESNGQPENNYKTTPPVLDSDGSFFLYSKLTVDKSRWQQGNVFSCSVMHEALHNRYTQKSLSLSP
light: DIVMTQSPLSLPVTPGEPASISCRSSQSFVHSNRNTYLHWYQQKPGQAPRLLIYKVSNRFSGVPDRFSGSGSGTDFTLKISRVEAEDVGVYYCGQGTQVPYTFGQGTKLEIKRTVAAPSVFIFPPSDEQLKSGTASVVCLLNNFYPREAKVQWKVDNALQSGNSQESVTEQDSKDSTYSLSSTLTLSKADYEKHKVYACEVTHQGLSSPVTKSFNRGEC
notes: one-arm antibody
B5: GLS3000 L27bI (Kabat) L chain altered form, one-arm antibody with CE115HA000 (antibody, human IgG1, kappa, L234A L235A, N297A, name in Kabat numbering)
heavy: QVQLVESGGGVVQPGRSLRLSCAASGFTFSNAWMHWVRQAPGKGLEWVAQIKAKSNNYATYYAESVKGRFTISRDDSKNSLYLQMNSLKTEDTAVYYCRYVHYGAYYGVDAWGQGTTVTVSSASTKGPSVFPLAPSSKSTSGGTAALGCLVKDYFPEPVTVSWNSGALTSGVHTFPAVLQSSGLYSLSSVVTVPSSSLGTQTYICNVNHKPSNTKVDKKVEPKSCDKTHTCPPCPAPEAAGGPSVFLFPPKPKDTLMISRTPEVTCVVVDVSHEDPEVKFNWYVDGVEVHNAKTKPREEQYASTYRVVSVLTVLHQDWLNGKEYKCKVSNKALPAPIEKTISKAKGQPREPQVYTLPPSRCELTKNQVSLSCAVKGFYPSDIAVEWESNGQPENNYKTTPPVLDSDGSFFLVSKLTVDKSRWQQGNVFSCSVMHEALHNHYTQKSLSLSPDYKDDDDK
chain: EPKSSDKTHTCPPCPAPELLGGPSVFLFPPKPKDTLMISRTPEVTCVVVDVSHEDPEVKFNWYVDGVEVHNAKTKPREEQYNSTYRVVSVLTVLHQDWLNGKEYKCKVSNKALPAPIEKTISKAKGQPREPQVCTLPPSRDELTKNQVSLWCLVKGFYPSDIAVEWESNGQPENNYKTTPPVLDSDGSFFLYSKLTVDKSRWQQGNVFSCSVMHEALHNRYTQKSLSLSP
light: DIVMTQSPLSLPVTPGEPASISCRSSQSIVHSNRNTYLHWYQQKPGQAPRLLIYKVSNRFSGVPDRFSGSGSGTDFTLKISRVEAEDVGVYYCGQGTQVPYTFGQGTKLEIKRTVAAPSVFIFPPSDEQLKSGTASVVCLLNNFYPREAKVQWKVDNALQSGNSQESVTEQDSKDSTYSLSSTLTLSKADYEKHKVYACEVTHQGLSSPVTKSFNRGEC
notes: one-arm antibody
B6: GLS3000 L27bE (Kabat) L chain altered form, one-arm antibody with CE115HA000 (antibody, human IgG1, kappa, L234A L235A, N297A, name in Kabat numbering)
heavy: QVQLVESGGGVVQPGRSLRLSCAASGFTFSNAWMHWVRQAPGKGLEWVAQIKAKSNNYATYYAESVKGRFTISRDDSKNSLYLQMNSLKTEDTAVYYCRYVHYGAYYGVDAWGQGTTVTVSSASTKGPSVFPLAPSSKSTSGGTAALGCLVKDYFPEPVTVSWNSGALTSGVHTFPAVLQSSGLYSLSSVVTVPSSSLGTQTYICNVNHKPSNTKVDKKVEPKSCDKTHTCPPCPAPEAAGGPSVFLFPPKPKDTLMISRTPEVTCVVVDVSHEDPEVKFNWYVDGVEVHNAKTKPREEQYASTYRVVSVLTVLHQDWLNGKEYKCKVSNKALPAPIEKTISKAKGQPREPQVYTLPPSRCELTKNQVSLSCAVKGFYPSDIAVEWESNGQPENNYKTTPPVLDSDGSFFLVSKLTVDKSRWQQGNVFSCSVMHEALHNHYTQKSLSLSPDYKDDDDK
chain: EPKSSDKTHTCPPCPAPELLGGPSVFLFPPKPKDTLMISRTPEVTCVVVDVSHEDPEVKFNWYVDGVEVHNAKTKPREEQYNSTYRVVSVLTVLHQDWLNGKEYKCKVSNKALPAPIEKTISKAKGQPREPQVCTLPPSRDELTKNQVSLWCLVKGFYPSDIAVEWESNGQPENNYKTTPPVLDSDGSFFLYSKLTVDKSRWQQGNVFSCSVMHEALHNRYTQKSLSLSP
light: DIVMTQSPLSLPVTPGEPASISCRSSQSEVHSNRNTYLHWYQQKPGQAPRLLIYKVSNRFSGVPDRFSGSGSGTDFTLKISRVEAEDVGVYYCGQGTQVPYTFGQGTKLEIKRTVAAPSVFIFPPSDEQLKSGTASVVCLLNNFYPREAKVQWKVDNALQSGNSQESVTEQDSKDSTYSLSSTLTLSKADYEKHKVYACEVTHQGLSSPVTKSFNRGEC
notes: one-arm antibody

target: T1, CD3 epsilon homodimer protein (UniProt P07766 23-126); test: SPR Biacore T200, CD3 epsilon homodimer immobilized; vs unaltered GLS3000;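 also: antibody variants flowed as analyte over CD3 epsilon homodimer amine-coupled to a CM4 chip, at 25 °C in HBS-EP+ running buffer, fitted with Biacore T200 Evaluation Software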
T1 construct: construct not described; homodimer as printed; also called CD3 (CD3 epsilon)
T1 sequence (P07766 23-126): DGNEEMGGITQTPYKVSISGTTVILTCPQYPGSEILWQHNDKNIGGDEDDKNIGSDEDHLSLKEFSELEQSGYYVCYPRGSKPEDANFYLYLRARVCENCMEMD

Binder	KD ratio to GLS3000 (Affinity up)
B1	59.5
B2	25.1
B3	1.31
B4	2.67
B5	1.17
B6	26.8
